Test results taken from patent publication US10260068B2, “Prophylactic agent and therapeutic agent for fibrodysplasia ossificans progressiva” (Sumitomo Dainippon Pharma Co., Ltd., priority 2014, dated 2019).

How the values were obtained:
[1] = biological target: T1, FOP patient-derived ACVR1 (Homo sapiens, UniProt Q04771, R206H); experiment: Luciferase reporter (BMP responsive sequence) transcription activity via ACVR1 in FOP patient derived cells; format: cell-based; conditions: ligand 1, 10, 100 ng/mL, 16 hours, significant at 10 and 100 ng/mL vs untreated group
T1 construct: The patient cells were confirmed to be cells having a typical FOP-associated mutation in the ACVR1 gene; endogenous in cells; host or cells: mesenchymal stem cell-like cells differentiated from an FOP patient-derived iPS cell line
T1 sequence (Q04771 21-509 R206H): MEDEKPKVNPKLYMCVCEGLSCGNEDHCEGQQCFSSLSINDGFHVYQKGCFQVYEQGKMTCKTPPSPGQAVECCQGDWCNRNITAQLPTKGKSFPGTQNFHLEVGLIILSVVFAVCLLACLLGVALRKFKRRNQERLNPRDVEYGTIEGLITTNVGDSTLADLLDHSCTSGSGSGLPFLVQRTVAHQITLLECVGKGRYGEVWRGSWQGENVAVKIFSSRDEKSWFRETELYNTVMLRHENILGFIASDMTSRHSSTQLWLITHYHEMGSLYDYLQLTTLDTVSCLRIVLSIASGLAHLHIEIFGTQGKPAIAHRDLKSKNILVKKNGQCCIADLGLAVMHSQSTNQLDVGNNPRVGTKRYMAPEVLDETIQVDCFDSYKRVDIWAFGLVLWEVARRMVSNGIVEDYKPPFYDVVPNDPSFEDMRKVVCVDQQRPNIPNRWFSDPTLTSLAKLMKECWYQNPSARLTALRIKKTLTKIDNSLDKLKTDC
Excerpt: Following the method of Yamanaka et al. (Cell, 2007, 131 (5), […]), FOP patient-derived iPS cells (hereunder also referred to as “patient-derived iPS cell line”) were established. The patient cells were confirmed to be cells having a typical FOP-associated mutation in the ACVR1 gene. The mutation is a substitution of the 206th arginine residue of the amino acid sequence of ACVR1 (the amino acid sequence listed as SEQ ID NO: 10) with a histidine residue. Next, for use as a control, an iPS cell line with the ACVR1 gene mutation repaired to the normal type (wild type) by gene repair by a BAC knockin vector (hereunder also referred to as “gene-corrected iPS cell clone” or “gene-rescued iPS cell clone”) was established.
The patient-derived iPS cell line and gene-corrected iPS cell line were cultured on the matrix of a Matrigel coated plate (trade name: Growth Factor Reduced (GFR)BD Matrigel® by Becton & Dickinson), using mTeSR1 (Stem Cell Technologies) for 2 days under feeder-free conditions. Next, using serum-free medium [F12 Nutrient Mixture (product of Gibco)/Iscove's Modified Dulbecco's Medium (IMDM) (product of Sigma-Aldrich Japan, KK.)/0.5% bovine serum albumin (BSA) (product of Sigma-Aldrich Japan, KK.)/1% Chemically Defined Lipid (CD-Lipid) (product of Gibco, trade name: Chemically Defined Lipid Concentrate)/15 μg/mL apotransferrin (product of Sigma-Aldrich Japan, KK., trade name: apo-Transferrin human)/7 μg/mL insulin (product of Wako Pure Chemical Industries, Ltd., trade name: Insulin, Human, recombinant)/0.45 mM 1-Thioglycerol (product of Sigma-Aldrich Japan, KK.)] with addition of 10 μM SB-431542 (product of Selleck Chemicals) and 1 μM CHIR99021 (product of Wako Pure Chemical Industries, Ltd.), the patient-derived iPS cell line and gene-corrected iPS cell line were further cultured for 1 week under feeder-free conditions for differentiation to neural crest cells. […]
After mixing Firefly luciferase reporter plasmid having the BMP responsive sequence in the promoter region (J. Biol. Chem., 2002, 277(7), 4883-4891) and a plasmid having a nucleic acid sequence coding for Renilla luciferase downstream from CMV promoter, as an internal standard (product of Promega Corp., trade name: phRL-CMV Vector), FuGene® HD (Promega Corp.) was used for transfection into the mesenchymal stem cell-like cells. […] Next, the luciferase activity was measured according to the protocol provided with a Dual-Glo Luciferase Assay System (product of Promega Corp.). The luminescence was detected using an EnVision Multilabel Counter (product of Perkin-Elmer). […]

[2] = test system: SMAD1/5/8; experiment: SMAD1/5/8 phosphorylation by Western blotting in gene-corrected clone derived cells; format: cell-based, human; conditions: 10 and 100 ng/mL activin A or 100 ng/mL BMP-7, 60 minutes
Description: Mesenchymal stem cell-like cells from a patient iPS cell line and a gene-corrected iPS cell clone were each prepared by the same method as Example 1. Culturing was conducted for 60 minutes with addition of 10 ng/mL and 100 ng/mL of human activin A or 100 ng/mL of human BMP-7 to the mesenchymal stem cell-like cells. The cells were then solubilized with 300 μL of a dissolving solution (70 mM Tris-HCl buffer solution, pH 6.8, 11.2% glycerol, 3% sodium dodecyl sulfate), and a cell extract was prepared. The amount of phosphorylated SMAD1/5/8 and the amount of total SMAD1/5/8 in the obtained cell extract were quantified by Western blotting. As the primary antibody for phosphorylated SMAD1/5/8 there was used rabbit anti-phosphorylated SMAD1/5/8 antibody [product of Cell Signaling Tech., trade name: Phospho-Smad1 (Ser463/465)/Smad5 (Ser463/465)/Smad8 (Ser426/428) Antibody (Rabbit)], and as the primary antibody for total SMAD1/5/8 there was used rabbit anti-total SMAD1/5/8 antibody [product of Santa Cruz Biotechnology, trade name: Smad1/5/8 Antibody (N-18)-R (Rabbit)]. The secondary antibody used was horseradish peroxidase conjugated anti-rabbit antibody (product of Cell Signaling Tech., trade name: Anti-rabbit IgG, HRP-linked Antibody). […]

Molecule	transcription activity via ACVR1 (firefly/Renilla luciferase activity, BMP responsive sequence) [1]	phosphorylation of SMAD1/5/8 [2]
human activin A: Recombinant Human/Mouse/Rat Activin A (R&D Systems); homodimer of inhibin βA chains	significantly increased	no phosphorylation of SMAD1/5/8 was induced
BMP-7: Recombinant Human BMP-7 (R&D Systems); cytokine of the BMP family (protein) STGSKQRSQNRSKTPKNQEALRMANVAENSSSDQRQACKKHELYVSFRDLGWQDWIIAPEGYAAYYCEGECAFPLNSYMNATNHAIVQTLVHFINPETVPKPCCAPTQLNAISVLYFDDSSNVILKKYRNMVVRACGCH	increased in a concentration-dependent manner	occurred
